T1: APBA1_1, Q02410
T1 sequence (Q02410 651-752, limits assumed, looked up): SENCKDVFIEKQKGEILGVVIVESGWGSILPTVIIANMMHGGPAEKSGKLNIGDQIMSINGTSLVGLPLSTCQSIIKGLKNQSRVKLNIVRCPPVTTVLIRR

T2: APBA1_2, Q02410
T2 sequence (Q02410 742-832, limits assumed, looked up): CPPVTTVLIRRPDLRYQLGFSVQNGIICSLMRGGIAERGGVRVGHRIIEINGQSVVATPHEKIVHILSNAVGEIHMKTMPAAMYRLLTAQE

T3: APBA3_1, O96018
T3 sequence (O96018 389-490, limits assumed, looked up): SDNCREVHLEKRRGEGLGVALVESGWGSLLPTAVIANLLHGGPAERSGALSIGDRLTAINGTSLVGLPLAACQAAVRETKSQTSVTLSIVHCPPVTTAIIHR

T4: DLG3_1, Q92796
T4 sequence (Q92796 125-227, limits assumed, looked up): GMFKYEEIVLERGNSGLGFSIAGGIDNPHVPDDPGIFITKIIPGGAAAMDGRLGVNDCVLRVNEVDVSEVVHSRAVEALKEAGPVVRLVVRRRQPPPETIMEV

T5: DLG3_2, Q92796
T5 sequence (Q92796 221-321, limits assumed, looked up): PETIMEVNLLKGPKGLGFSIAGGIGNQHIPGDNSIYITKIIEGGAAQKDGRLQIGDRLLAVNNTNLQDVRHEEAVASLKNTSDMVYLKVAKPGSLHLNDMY

T6: GRIP1_2, Q9Y3R0
T6 sequence (Q9Y3R0 145-248, limits assumed, looked up): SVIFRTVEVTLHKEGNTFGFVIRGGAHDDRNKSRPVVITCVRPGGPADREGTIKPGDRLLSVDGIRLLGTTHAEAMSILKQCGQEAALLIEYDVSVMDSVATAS

T7: LNX2_2, Q8N448
T7 sequence (Q8N448 334-432, limits assumed, looked up): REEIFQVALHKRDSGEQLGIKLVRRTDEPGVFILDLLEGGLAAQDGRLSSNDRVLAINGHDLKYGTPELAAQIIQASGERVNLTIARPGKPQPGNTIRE

T8: MPDZ_5, O75970
T8 sequence (O75970 695-796, limits assumed, looked up): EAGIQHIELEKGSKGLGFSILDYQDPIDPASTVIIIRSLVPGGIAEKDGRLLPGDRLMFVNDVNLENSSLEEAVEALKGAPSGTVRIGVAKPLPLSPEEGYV

T9: MPP2, Q14168
T9 sequence (Q14168 180-250, limits assumed, looked up): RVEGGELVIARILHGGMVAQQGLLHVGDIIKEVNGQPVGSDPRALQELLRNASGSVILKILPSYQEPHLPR

T10: RADIL, Q96JH8
T10 sequence (Q96JH8 971-1071, limits assumed, looked up): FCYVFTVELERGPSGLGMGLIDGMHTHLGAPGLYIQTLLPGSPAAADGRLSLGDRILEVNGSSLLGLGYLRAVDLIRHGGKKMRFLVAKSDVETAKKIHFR

T11: SNTB1, Q13884
T11 sequence (Q13884 107-205, limits assumed, looked up): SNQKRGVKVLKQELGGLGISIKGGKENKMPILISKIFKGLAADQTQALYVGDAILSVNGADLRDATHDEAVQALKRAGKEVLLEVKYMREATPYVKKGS

T12: TX1BP3, O14907
T12 sequence (O14907 10-122, limits assumed, looked up): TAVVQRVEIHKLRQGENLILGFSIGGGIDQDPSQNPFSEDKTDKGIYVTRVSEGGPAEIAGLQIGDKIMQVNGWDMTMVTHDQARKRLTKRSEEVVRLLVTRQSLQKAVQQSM


These binders were tested against T1, APBA1_1, Q02410 (assay: holdup assay). Conditions: plain residues with an end cap or a label only (N-terminal biotin on a linker: ado-ado).
Parameters: key: below the threshold = too weak to quantify, mostly under pKd 3.1 to 4

Row | pKd | Binder
1 | below the threshold | AHGSTRDQSI [KCNB1, Q14721]
2 | below the threshold | PALKNGQYWV [CSPG4, Q6UVK1]

These binders were tested against T2, APBA1_2, Q02410 (assay: holdup assay). Conditions: plain residues with an end cap or a label only (N-terminal biotin on a linker: ado-ado).
Parameters: key: below the threshold = too weak to quantify, mostly under pKd 3.1 to 4

Row | pKd | Binder
3 | below the threshold | AHGSTRDQSI [KCNB1, Q14721]
4 | 4.67 | PALKNGQYWV [CSPG4, Q6UVK1]

What follows are binders tested against T3, APBA3_1, O96018 (assay: holdup assay). Conditions: plain residues with an end cap or a label only (N-terminal biotin on a linker: ado-ado).
Parameters: key: below the threshold = too weak to quantify, mostly under pKd 3.1 to 4

Row | pKd | Binder
5 | below the threshold | AHGSTRDQSI [KCNB1, Q14721]
6 | below the threshold | PALKNGQYWV [CSPG4, Q6UVK1]

Each binder was assayed against ARHGEF12, Q9NZN5-2 (assay: holdup assay). Conditions: plain residues with an end cap or a label only (N-terminal biotin on a linker: ado-ado).
Parameters: key: below the threshold = too weak to quantify, mostly under pKd 3.1 to 4

ARHGEF12, Q9NZN5-2, sequence (Q9NZN5 other isoform, or with tags, fused parts or gaps): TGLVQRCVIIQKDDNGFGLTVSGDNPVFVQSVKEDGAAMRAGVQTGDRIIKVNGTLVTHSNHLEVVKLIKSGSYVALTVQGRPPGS

Row | pKd | Binder
7 | below the threshold | AHGSTRDQSI [KCNB1, Q14721]
8 | below the threshold | PALKNGQYWV [CSPG4, Q6UVK1]

Each binder was assayed against CASK, O14936 (assay: holdup assay). Conditions: plain residues with an end cap or a label only (N-terminal biotin on a linker: ado-ado).
Parameters: key: below the threshold = too weak to quantify, mostly under pKd 3.1 to 4

CASK, O14936, sequence (O14936 487-570): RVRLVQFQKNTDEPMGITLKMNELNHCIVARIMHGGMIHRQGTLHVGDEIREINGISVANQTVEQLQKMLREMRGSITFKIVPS

Row | pKd | Binder
9 | below the threshold | AHGSTRDQSI [KCNB1, Q14721]
10 | below the threshold | PALKNGQYWV [CSPG4, Q6UVK1]

What follows are binders tested against DLG1_2, Q12959 (assay: holdup assay). Conditions: plain residues with an end cap or a label only (N-terminal biotin on a linker: ado-ado).
Parameters: key: below the threshold = too weak to quantify, mostly under pKd 3.1 to 4

DLG1_2, Q12959, sequence (Q12959 314-412): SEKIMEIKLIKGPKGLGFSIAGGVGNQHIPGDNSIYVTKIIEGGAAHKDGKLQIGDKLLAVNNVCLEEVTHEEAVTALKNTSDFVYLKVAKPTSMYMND

Row | pKd | Binder
11 | below the threshold | AHGSTRDQSI [KCNB1, Q14721]
12 | below the threshold | PALKNGQYWV [CSPG4, Q6UVK1]

What follows are binders tested against DLG2_2, Q15700 (assay: holdup assay). Conditions: plain residues with an end cap or a label only (N-terminal biotin on a linker: ado-ado).
Parameters: key: below the threshold = too weak to quantify, mostly under pKd 3.1 to 4

DLG2_2, Q15700, sequence (Q15700 189-283): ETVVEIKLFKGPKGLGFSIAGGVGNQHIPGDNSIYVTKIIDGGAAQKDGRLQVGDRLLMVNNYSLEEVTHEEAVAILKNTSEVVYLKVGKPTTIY

Row | pKd | Binder
13 | 3.86 | AHGSTRDQSI [KCNB1, Q14721]
14 | below the threshold | PALKNGQYWV [CSPG4, Q6UVK1]

These binders were tested against T4, DLG3_1, Q92796 (assay: holdup assay). Conditions: plain residues with an end cap or a label only (N-terminal biotin on a linker: ado-ado).
Parameters: key: below the threshold = too weak to quantify, mostly under pKd 3.1 to 4

Row | pKd | Binder
15 | 3.68 | AHGSTRDQSI [KCNB1, Q14721]
16 | below the threshold | PALKNGQYWV [CSPG4, Q6UVK1]

Each binder was assayed against T5, DLG3_2, Q92796 (assay: holdup assay). Conditions: plain residues with an end cap or a label only (N-terminal biotin on a linker: ado-ado).
Parameters: key: below the threshold = too weak to quantify, mostly under pKd 3.1 to 4

Row | pKd | Binder
17 | 4.21 | AHGSTRDQSI [KCNB1, Q14721]
18 | below the threshold | PALKNGQYWV [CSPG4, Q6UVK1]

What follows are binders tested against DLG4_3, P78352 (assay: holdup assay). Conditions: plain residues with an end cap or a label only (N-terminal biotin on a linker: ado-ado).
Parameters: key: below the threshold = too weak to quantify, mostly under pKd 3.1 to 4

DLG4_3, P78352, sequence (P78352 306-403): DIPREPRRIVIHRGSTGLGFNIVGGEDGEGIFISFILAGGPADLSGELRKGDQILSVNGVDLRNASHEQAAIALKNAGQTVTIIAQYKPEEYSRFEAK

Row | pKd | Binder
19 | below the threshold | AHGSTRDQSI [KCNB1, Q14721]
20 | below the threshold | PALKNGQYWV [CSPG4, Q6UVK1]

The binders below were run against T6, GRIP1_2, Q9Y3R0 (assay: holdup assay). Conditions: plain residues with an end cap or a label only (N-terminal biotin on a linker: ado-ado).
Parameters: key: below the threshold = too weak to quantify, mostly under pKd 3.1 to 4

Row | pKd | Binder
21 | below the threshold | AHGSTRDQSI [KCNB1, Q14721]
22 | below the threshold | PALKNGQYWV [CSPG4, Q6UVK1]

These binders were tested against Inadl_10, Q8NI35 (assay: holdup assay). Conditions: plain residues with an end cap or a label only (N-terminal biotin on a linker: ado-ado).
Parameters: key: below the threshold = too weak to quantify, mostly under pKd 3.1 to 4

Inadl_10, Q8NI35, sequence (Q8NI35 1673-1763): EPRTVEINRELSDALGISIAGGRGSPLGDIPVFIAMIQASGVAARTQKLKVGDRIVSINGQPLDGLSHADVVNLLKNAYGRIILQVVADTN

Row | pKd | Binder
23 | below the threshold | AHGSTRDQSI [KCNB1, Q14721]
24 | below the threshold | PALKNGQYWV [CSPG4, Q6UVK1]

These binders were tested against LAP2, Q96RT1 (assay: holdup assay). Conditions: plain residues with an end cap or a label only (N-terminal biotin on a linker: ado-ado).
Parameters: key: below the threshold = too weak to quantify, mostly under pKd 3.1 to 4

LAP2, Q96RT1, sequence (Q96RT1 other isoform, or with tags, fused parts or gaps): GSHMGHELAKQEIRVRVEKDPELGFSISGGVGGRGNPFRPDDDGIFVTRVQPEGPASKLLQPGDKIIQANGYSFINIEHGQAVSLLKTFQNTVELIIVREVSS

Row | pKd | Binder
25 | below the threshold | AHGSTRDQSI [KCNB1, Q14721]
26 | 3.75 | PALKNGQYWV [CSPG4, Q6UVK1]

These binders were tested against LNX1_2, Q8TBB1 (assay: holdup assay). Conditions: plain residues with an end cap or a label only (N-terminal biotin on a linker: ado-ado).
Parameters: key: below the threshold = too weak to quantify, mostly under pKd 3.1 to 4

LNX1_2, Q8TBB1, sequence (Q8TBB1 371-470): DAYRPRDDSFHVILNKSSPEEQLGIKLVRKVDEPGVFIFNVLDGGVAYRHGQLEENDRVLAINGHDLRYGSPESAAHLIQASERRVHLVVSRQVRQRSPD

Row | pKd | Binder
27 | below the threshold | AHGSTRDQSI [KCNB1, Q14721]
28 | 4.27 | PALKNGQYWV [CSPG4, Q6UVK1]

What follows are binders tested against T7, LNX2_2, Q8N448 (assay: holdup assay). Conditions: plain residues with an end cap or a label only (N-terminal biotin on a linker: ado-ado).
Parameters: key: below the threshold = too weak to quantify, mostly under pKd 3.1 to 4

Row | pKd | Binder
29 | below the threshold | AHGSTRDQSI [KCNB1, Q14721]
30 | 5.28 | PALKNGQYWV [CSPG4, Q6UVK1]

These binders were tested against MAGI2_4, Q86UL8 (assay: holdup assay). Conditions: plain residues with an end cap or a label only (N-terminal biotin on a linker: ado-ado).
Parameters: key: below the threshold = too weak to quantify, mostly under pKd 3.1 to 4

MAGI2_4, Q86UL8, sequence (Q86UL8 772-865): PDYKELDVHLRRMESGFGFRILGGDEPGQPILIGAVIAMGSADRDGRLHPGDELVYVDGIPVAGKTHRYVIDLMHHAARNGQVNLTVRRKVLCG

Row | pKd | Binder
31 | 3.9 | AHGSTRDQSI [KCNB1, Q14721]
32 | 3.82 | PALKNGQYWV [CSPG4, Q6UVK1]

The binders below were run against MAGI3_2, Q5TCQ9 (assay: holdup assay). Conditions: plain residues with an end cap or a label only (N-terminal biotin on a linker: ado-ado).
Parameters: key: below the threshold = too weak to quantify, mostly under pKd 3.1 to 4

MAGI3_2, Q5TCQ9, sequence (Q5TCQ9 398-503): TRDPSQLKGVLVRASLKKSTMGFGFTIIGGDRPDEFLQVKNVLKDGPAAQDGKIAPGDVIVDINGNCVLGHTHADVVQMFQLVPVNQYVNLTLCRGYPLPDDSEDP

Row | pKd | Binder
33 | below the threshold | AHGSTRDQSI [KCNB1, Q14721]
34 | 4.03 | PALKNGQYWV [CSPG4, Q6UVK1]

These binders were tested against T8, MPDZ_5, O75970 (assay: holdup assay). Conditions: plain residues with an end cap or a label only (N-terminal biotin on a linker: ado-ado).
Parameters: key: below the threshold = too weak to quantify, mostly under pKd 3.1 to 4

Row | pKd | Binder
35 | below the threshold | AHGSTRDQSI [KCNB1, Q14721]
36 | 4.2 | PALKNGQYWV [CSPG4, Q6UVK1]

The binders below were run against T9, MPP2, Q14168 (assay: holdup assay). Conditions: plain residues with an end cap or a label only (N-terminal biotin on a linker: ado-ado).
Parameters: key: below the threshold = too weak to quantify, mostly under pKd 3.1 to 4

Row | pKd | Binder
37 | below the threshold | AHGSTRDQSI [KCNB1, Q14721]
38 | below the threshold | PALKNGQYWV [CSPG4, Q6UVK1]

The binders below were run against PDZRN4_1, Q6ZMN7 (assay: holdup assay). Conditions: plain residues with an end cap or a label only (N-terminal biotin on a linker: ado-ado).
Parameters: key: below the threshold = too weak to quantify, mostly under pKd 3.1 to 4

PDZRN4_1, Q6ZMN7, sequence (Q6ZMN7 213-318): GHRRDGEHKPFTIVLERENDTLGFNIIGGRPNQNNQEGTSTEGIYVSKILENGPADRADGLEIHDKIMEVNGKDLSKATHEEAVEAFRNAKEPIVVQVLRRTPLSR

Row | pKd | Binder
39 | below the threshold | AHGSTRDQSI [KCNB1, Q14721]
40 | below the threshold | PALKNGQYWV [CSPG4, Q6UVK1]

What follows are binders tested against PICK1, Q9NRD5 (assay: holdup assay). Conditions: plain residues with an end cap or a label only (N-terminal biotin on a linker: ado-ado).
Parameters: key: below the threshold = too weak to quantify, mostly under pKd 3.1 to 4

PICK1, Q9NRD5, sequence (Q9NRD5 17-115): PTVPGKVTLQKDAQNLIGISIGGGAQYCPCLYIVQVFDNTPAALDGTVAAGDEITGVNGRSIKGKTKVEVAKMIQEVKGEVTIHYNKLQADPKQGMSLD

Row | pKd | Binder
41 | 4.15 | AHGSTRDQSI [KCNB1, Q14721]
42 | below the threshold | PALKNGQYWV [CSPG4, Q6UVK1]

Each binder was assayed against T10, RADIL, Q96JH8 (assay: holdup assay). Conditions: plain residues with an end cap or a label only (N-terminal biotin on a linker: ado-ado).
Parameters: key: below the threshold = too weak to quantify, mostly under pKd 3.1 to 4

Row | pKd | Binder
43 | below the threshold | AHGSTRDQSI [KCNB1, Q14721]
44 | 5.17 | PALKNGQYWV [CSPG4, Q6UVK1]

The binders below were run against T11, SNTB1, Q13884 (assay: holdup assay). Conditions: plain residues with an end cap or a label only (N-terminal biotin on a linker: ado-ado).
Parameters: key: below the threshold = too weak to quantify, mostly under pKd 3.1 to 4

Row | pKd | Binder
45 | below the threshold | AHGSTRDQSI [KCNB1, Q14721]
46 | below the threshold | PALKNGQYWV [CSPG4, Q6UVK1]

These binders were tested against TJP1_2, Q07157 (assay: holdup assay). Conditions: plain residues with an end cap or a label only (N-terminal biotin on a linker: ado-ado).
Parameters: key: below the threshold = too weak to quantify, mostly under pKd 3.1 to 4

TJP1_2, Q07157, sequence (Q07157 181-274): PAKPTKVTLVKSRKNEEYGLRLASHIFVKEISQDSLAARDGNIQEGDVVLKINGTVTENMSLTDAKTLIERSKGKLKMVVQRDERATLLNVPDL

Row | pKd | Binder
47 | below the threshold | AHGSTRDQSI [KCNB1, Q14721]
48 | 4.69 | PALKNGQYWV [CSPG4, Q6UVK1]

What follows are binders tested against TJP2_1, Q9UDY2 (assay: holdup assay). Conditions: plain residues with an end cap or a label only (N-terminal biotin on a linker: ado-ado).
Parameters: key: below the threshold = too weak to quantify, mostly under pKd 3.1 to 4

TJP2_1, Q9UDY2, sequence (Q9UDY2 24-128): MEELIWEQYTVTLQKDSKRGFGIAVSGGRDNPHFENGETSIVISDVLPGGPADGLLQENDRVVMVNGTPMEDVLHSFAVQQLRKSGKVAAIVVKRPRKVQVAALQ

Row | pKd | Binder
49 | below the threshold | AHGSTRDQSI [KCNB1, Q14721]
50 | 4.6 | PALKNGQYWV [CSPG4, Q6UVK1]

These binders were tested against T12, TX1BP3, O14907 (assay: holdup assay). Conditions: plain residues with an end cap or a label only (N-terminal biotin on a linker: ado-ado).
Parameters: key: below the threshold = too weak to quantify, mostly under pKd 3.1 to 4

Row | pKd | Binder
51 | 4.1 | AHGSTRDQSI [KCNB1, Q14721]
52 | 4.19 | PALKNGQYWV [CSPG4, Q6UVK1]
